Earlier results, collected in US20240277840A1, “SUPERCONCENTRATED FORMULATIONS OF BIOACTIVE AGENTS” (UPKARA, INC., priority 2021, published 2024).

Details: intraperitoneal (IP) administration, preclinical

catumaxomab
local concentration of the antibody in the ascites fluid: high local concentrations | systemic exposure, detectable in plasma: < 5%
